One test has as its target HLA-C*14:02. The experiment in a line: IEDB peptide-MHC binding, purified MHC/direct/fluorescence; filed as Kd, often an IC50 or EC50 that approximates it; ≥ and ≤ were set here for values at or beyond the usual limits of such assays.
In a further test the target is HLA-B*57:01. The test is described as above.
For the next test, the target named is HLA-B*58:01. The test is described as above.
The target of the next test is HLA-B*44:02. The test is described as above. The following applies: source organism: Mammarenavirus juninense.
The next test deals with HLA-B*18:01. Described as above.
The target in test [1] is HLA-A*01:01. The test is described as above.
For test [2], the target named is HLA-B*27:05. The test is described as above. The conditions noted are these: source organism: Mammarenavirus juninense.
In test [3] the target is HLA-A*03:01. The description is as above.
Another test concerns the target HLA-B*39:01. The description is as above. The following applies: source organism: Mammarenavirus juninense.
Another test has as its target HLA-A*29:02. The description is as above. The conditions noted are these: source organism: Mammarenavirus juninense.
In test [4] the target is HLA-A*31:01. The description is as above. The following applies: source organism: Mammarenavirus juninense.
For the next test, the target named is HLA-A*02:11. The description is as above. The conditions noted are these: source organism: Mammarenavirus juninense.
For test [5], the target named is HLA-A*02:01. The description is as above. The conditions noted are these: source organism: Mammarenavirus juninense.
Another test deals with HLA-C*03:03. The test is described as above. The following applies: source organism: Mammarenavirus juninense.
The target of another test is HLA-A*68:01. Kind of test: IEDB peptide-MHC binding, purified MHC/competitive/radioactivity; filed as Kd, often an IC50 or EC50 that approximates it; ≥ and ≤ were set here for values at or beyond the usual limits of such assays. The following applies: source organism: Vaccinia virus WR.
The target in test [6] is HLA-A*31:01. Described as above. The conditions noted are these: source organism: Vaccinia virus WR.
In a further test the target is HLA-A*33:01. Described as above. The conditions noted are these: source organism: Vaccinia virus WR.
In test [7] the target is HLA-A*01:01. The experiment in a line: IEDB peptide-MHC binding, purified MHC/competitive/fluorescence; ≥ and ≤ were set here for values at or beyond the usual limits of such assays.
Test [8] has as its target HLA-B*15:01. The description is as above. The conditions noted are these: source organism: Vaccinia virus Copenhagen.
Test [9] addresses HLA-A*03:01. The test is described as above. The conditions noted are these: source organism: Vaccinia virus Copenhagen.
Test [10] has as its target HLA-A*02:01. The description is as above. The following applies: source organism: Vaccinia virus Copenhagen.
Test [11] addresses HLA-A*11:01. The description is as above. The conditions noted are these: source organism: Vaccinia virus Copenhagen.
Another test concerns the target HLA-B*51:01. Kind of test: IEDB peptide-MHC binding, purified MHC/direct/fluorescence; filed as Kd, often an IC50 or EC50 that approximates it; ≥ and ≤ were set here for values at or beyond the usual limits of such assays. The conditions noted are these: source organism: Vibrio parahaemolyticus.
The target in test [12] is HLA-B*15:01. The description is as above.
The target in test [13] is HLA-B*07:02. Described as above.
Test [14] addresses HLA-B*46:01. Kind of test: IEDB peptide-MHC binding, purified MHC/competitive/fluorescence; filed as Kd, often an IC50 or EC50 that approximates it; ≥ and ≤ were set here for values at or beyond the usual limits of such assays. The conditions noted are these: source organism: Bacillus anthracis str. A0488.
A further test has as its target HLA-C*15:02. Kind of test: IEDB peptide-MHC binding, purified MHC/direct/fluorescence; filed as Kd, often an IC50 or EC50 that approximates it; ≥ and ≤ were set here for values at or beyond the usual limits of such assays.
Another test has as its target HLA-B*40:01. The test is described as above.
The target of the next test is HLA-A*24:02. Kind of test: IEDB peptide-MHC binding, purified MHC/competitive/fluorescence; ≥ and ≤ were set here for values at or beyond the usual limits of such assays. The following applies: source organism: Vaccinia virus Copenhagen.
For the next test, the target named is HLA-A*68:02. Kind of test: IEDB peptide-MHC binding, purified MHC/competitive/fluorescence; filed as Kd, often an IC50 or EC50 that approximates it; ≥ and ≤ were set here for values at or beyond the usual limits of such assays. The conditions noted are these: source organism: Vaccinia virus Copenhagen.
Test [15] addresses HLA-B*27:05. Described as above. The following applies: source organism: Vaccinia virus Copenhagen.
Another test addresses HLA-B*15:17. Described as above. The conditions noted are these: source organism: Vaccinia virus Copenhagen.
For test [16], the target named is HLA-A*31:01. The test is described as above. The following applies: source organism: Vaccinia virus Copenhagen.
For test [17], the target named is HLA-A*02:01. Described as above. The following applies: source organism: Vaccinia virus Copenhagen.
For another test, the target named is HLA-A*26:03. The description is as above. The following applies: source organism: Vaccinia virus Copenhagen.
The target of the next test is HLA-B*08:03. The experiment in a line: IEDB peptide-MHC binding, purified MHC/direct/fluorescence; filed as Kd, often an IC50 or EC50 that approximates it; ≥ and ≤ were set here for values at or beyond the usual limits of such assays. The following applies: source organism: Variola virus.
The target in another test is HLA-A*26:01. Described as above. The conditions noted are these: source organism: Variola virus.
The target in the next test is HLA-B*08:01. The test is described as above. The following applies: source organism: Variola virus.
For another test, the target named is HLA-A*26:02. The description is as above. The conditions noted are these: source organism: Variola virus.
The target in a further test is HLA-B*48:01. The description is as above. The following applies: source organism: Camelpox virus M-96.
For test [18], the target named is HLA-B*46:01. Described as above. The following applies: source organism: Camelpox virus M-96.
A further test has as its target HLA-A*69:01. Described as above. The conditions noted are these: source organism: Camelpox virus M-96.
The target of test [19] is HLA-A*11:01. The description is as above. The conditions noted are these: source organism: Camelpox virus M-96.
In test [20] the target is HLA-B*07:02. The experiment in a line: IEDB peptide-MHC binding, purified MHC/competitive/fluorescence; filed as Kd, often an IC50 or EC50 that approximates it; ≥ and ≤ were set here for values at or beyond the usual limits of such assays. The conditions noted are these: source organism: Influenza A virus (A/chicken/Scotland/1959(H5N1)).
Setting [21] is: source organism: Mammarenavirus juninense.
[22] abbreviates: source organism: Cryptosporidium parvum.
Setting [23] is: source organism: Vaccinia virus Copenhagen.
[24] abbreviates: source organism: Camelpox virus M-96.

AASYARYVL displayed a Kd with HLA-C*14:02 (source organism: human gammaherpesvirus 4) of 491 nM.

For ASSEPHCAL, the dissociation constant (Kd) in the test with HLA-B*57:01 (setting [21]), with HLA-B*58:01 (setting [21]), in the test with HLA-B*44:02, with HLA-B*18:01 (setting [21]), with HLA-A*01:01 [1] (setting [21]) and with HLA-B*27:05 [2] was not below 20000 nM in each case. For the same sequence, the Kd with HLA-A*03:01 [3] (setting [21]) is not below 20000 nM; in the test with HLA-B*39:01, 1070 nM; in the test with HLA-A*29:02, not below 20000 nM; in the test with HLA-A*31:01 [4] it was not below 20000 nM; with HLA-A*02:11 it was 40 nM; with HLA-A*02:01 [5], not below 20000 nM. The sequence further yielded a dissociation constant Kd with HLA-C*03:03 not above 1 nM.

Consider KAFPLIQNM, for which the Kd with HLA-B*57:01 (setting [22]) came to 124 nM; in the test with HLA-B*58:01 (setting [22]) it was 12.4 nM; in the test with HLA-C*14:02 (source organism: Cryptosporidium parvum Iowa II) it was 368 nM.

As for KLNGAMVEY, the dissociation constant (Kd) with HLA-A*68:01 stood at 5.97 nM; in the test with HLA-A*31:01 [6], 1180 nM; in the test with HLA-A*33:01 it was 1960 nM. The concentration for half-maximal inhibition (IC50) was not below 192000 nM with HLA-A*01:01 [7] (setting [23]); 12200 nM with HLA-B*15:01 [8]; 11600 nM with HLA-A*03:01 [9]; not below 95400 nM with HLA-A*02:01 [10]; 7970 nM with HLA-A*11:01 [11].

Consider KVAQAAAAM, for which the Kd with HLA-B*51:01 is not below 20000 nM; with HLA-C*14:02 (source organism: Vibrio antiquarius) it was 72 nM; with HLA-B*15:01 [12] (source organism: Vibrio parahaemolyticus AQ3810), 29 nM; with HLA-B*07:02 [13] (source organism: Vibrio parahaemolyticus), 34 nM.

In the case of LMAFSTGPF, the dissociation constant (Kd) was 2760 nM with HLA-B*46:01 [14] and not below 20000 nM in the test with HLA-C*15:02 (source organism: Bacillus anthracis str. A0488).

LQIPFAMQM: the dissociation constant (Kd) with HLA-B*58:01 (source organism: SARS-CoV1) came out at 986 nM; with HLA-B*15:01 [12] (source organism: SARS-CoV1), 180 nM; with HLA-C*15:02 (source organism: SARS-CoV1) it was 110 nM; in the test with HLA-B*40:01 (source organism: SARS-CoV1), 4040 nM.

LYQLLEAVY: the IC50 in the test with HLA-A*24:02 was 68.7 nM; with HLA-A*01:01 [7] (setting [23]) it was not below 199000 nM; with HLA-B*15:01 [8], not below 71900 nM; with HLA-A*02:01 [10], not below 72800 nM.

SLYKYLLLR: the Kd was 3900 nM in the test with HLA-A*68:02; 2460 nM with HLA-B*27:05 [15]; not below 20000 nM in the test with HLA-B*15:17; 1.17 nM with HLA-A*31:01 [16]; 555 nM in the test with HLA-A*02:01 [17]; not below 20000 nM with HLA-A*26:03. The Kd with HLA-B*08:03, in the test with HLA-B*57:01 (setting [24]), in the test with HLA-A*26:01, with HLA-B*08:01, with HLA-B*58:01 (setting [24]) and in the test with HLA-A*26:02 was not below 20000 nM each time. Moreover, the Kd in the test with HLA-B*18:01 (setting [24]) was not below 20000 nM; in the test with HLA-A*01:01 [1] (setting [24]), not below 20000 nM; in the test with HLA-B*48:01, not below 20000 nM; in the test with HLA-B*15:01 [12] (setting [24]) it was not below 20000 nM; in the test with HLA-A*03:01 [3] (setting [24]), 31 nM; with HLA-B*46:01 [18], not below 20000 nM. Besides, the dissociation constant Kd with HLA-B*40:01 (setting [24]) is not below 20000 nM; with HLA-A*69:01 it was not below 20000 nM; with HLA-A*11:01 [19] it was 47 nM; with HLA-B*07:02 [13] (setting [24]), not below 20000 nM.

SPYRTLMSCPI gave a Kd in the test with HLA-B*07:02 [20] of 3.6 nM.

As to VVDPDDGSY, in the test with HLA-A*01:01 [7] (source organism: Zaire ebolavirus), the IC50 was found to be 44100 nM.

The term Kd denotes the constant that tells how readily two partners part at equilibrium. As a reminder, the IC50 is the concentration that gives 50% inhibition. A high value points to weaker potency in that assay.

These data come from the Immune Epitope Database (IEDB).
